Results reported in the supplement of paper PMC10065799, “High-throughput profiling of sequence recognition by tyrosine kinases and SH2 domains using bacterial peptide display” (eLife, 2023).

Target: EPHB1 (UniProt P54762)
Experiment: phosphorylation enrichment, bacterial display (enrichment ratio); higher = better substrate or ligand; peptides without Tyr show the background
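Also: 11-residue human phosphosite peptides and single-mutation variants displayed on the E. coli surface, counted by deep sequencing, each peptide's frequency after selection divided by its frequency in the unselected input library; frequency after pTyr selection over input frequency; kinase dosed for 20-30% of maximal phosphorylation in three min.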

Sequence of EPHB1 (P54762 whole entry, looked up): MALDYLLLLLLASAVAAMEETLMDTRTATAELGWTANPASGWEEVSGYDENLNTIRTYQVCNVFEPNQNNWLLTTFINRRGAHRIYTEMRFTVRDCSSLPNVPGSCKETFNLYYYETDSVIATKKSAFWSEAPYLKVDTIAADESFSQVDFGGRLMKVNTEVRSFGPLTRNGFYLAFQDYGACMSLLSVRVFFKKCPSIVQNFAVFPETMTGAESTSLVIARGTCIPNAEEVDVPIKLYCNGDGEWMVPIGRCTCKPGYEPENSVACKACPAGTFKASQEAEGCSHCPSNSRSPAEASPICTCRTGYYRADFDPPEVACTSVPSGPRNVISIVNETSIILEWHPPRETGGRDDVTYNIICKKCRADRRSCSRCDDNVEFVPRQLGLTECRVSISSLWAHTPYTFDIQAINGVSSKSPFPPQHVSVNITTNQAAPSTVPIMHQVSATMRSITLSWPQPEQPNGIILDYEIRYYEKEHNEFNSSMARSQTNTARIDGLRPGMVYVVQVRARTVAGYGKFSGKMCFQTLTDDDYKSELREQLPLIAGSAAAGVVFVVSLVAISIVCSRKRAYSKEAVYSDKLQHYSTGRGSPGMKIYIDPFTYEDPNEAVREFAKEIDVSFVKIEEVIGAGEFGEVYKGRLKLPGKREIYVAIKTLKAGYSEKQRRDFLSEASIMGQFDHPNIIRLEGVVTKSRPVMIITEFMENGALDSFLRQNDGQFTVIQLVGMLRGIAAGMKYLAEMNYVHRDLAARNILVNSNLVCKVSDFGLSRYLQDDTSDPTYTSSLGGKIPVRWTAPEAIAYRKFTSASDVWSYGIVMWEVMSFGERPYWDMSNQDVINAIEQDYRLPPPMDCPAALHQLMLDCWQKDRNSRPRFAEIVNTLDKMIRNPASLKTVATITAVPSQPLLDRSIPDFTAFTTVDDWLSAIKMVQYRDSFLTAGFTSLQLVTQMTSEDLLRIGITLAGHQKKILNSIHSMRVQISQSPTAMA

Point of comparison: PDSVDYRKKGF [CTSK_Y121_YF], phosphorylation enrichment 0.468. Against it:
- LIYTNYEAGKD [GSTP1_Y112] — higher, 6.63
- IGEGTYGVVFK [CDK2_Y15_YF] — higher, 1.14
- IGSQRYKLGVR [RB1_Y446] — lower, 0.336
- RRIHSYRSHLW [VHL_Y112_G114S] — higher, 0.81
- EEQKRYYNAMK [SCN5A_Y1494_K1493R] — higher, 0.512
- HELFVYKCDEN [DOCK3_Y548_YF] — higher, 1.13
- NTFEKYWLFFQ [GATM_Y103_P105L_YF] — higher, 0.721
- KTGDYYDLYGG [PTPN11_Y63_N58K] — higher, 9.65
- IVAREYYSEAD [CAMK2A_Y106] — higher, 0.557
- FRPPYYHRDCM [HGD_Y334_N337D] — higher, 0.536
- TETGRYEILTE — higher, 0.532
- RVEDAYILTCN [CCT6A_Y229] — higher, 0.515
- DLRTGYSVPYG [TGM1_Y370_Y365D] — lower, 0.409
- LNPLIYSLRNK [OR5R1_Y290] — higher, 2.03
- SSNTEYLSASD [INSR_Y999_P997T] — lower, 0.393
- EYFDGYWEYSV [ITGA2B_Y265_G267E] — higher, 2.02
- EPAVLYNLKER [MYH7_Y103_D107E] — lower, 0.354
- LASLIYNFILF [AQP6_Y231_V234I] — higher, 2.51
- GQSKGYRPKLF [SIPA1L3_Y1376_YF] — lower, 0.319
- CEHRGFLYLAI [TEK_Y897_Y897F] — lower, 0.464
- SLTRLCVGENA [NLRP3_Y861_Y861C] — higher, 0.495
- QPGTDYKIYRY [FN1_Y1970_L1974R] — lower, 0.383
- VMSMNYRVGAL [BCHE_Y174_V170M] — higher, 0.578
- SHMVDYQPYRK [TEX37_Y25] — higher, 0.609
- AQAERYDDMAA [YWHAG_Y20_E15A] — higher, 0.577
- SHLEDYPFNAE [AKR1B10_Y310] — higher, 0.568
- NIKKEYAKMVQ [PMS2_Y181] — lower, 0.345
- QDLFLYQTHSE [PKHD1_Y255] — higher, 0.887
- CTIIHYNYMCN [TP53_Y234_T231I] — higher, 0.723
- KNILCYIQGGS [HYDIN_Y4610] — higher, 0.711
- ALVDTYCRHNY [HLA-DRB1_Y107_A103L] — lower, 0.439
- SPPILYSFYLD [FCRL6_Y239] — higher, 3.28

Target: Hck (UniProt P08631)
Experiment: as above

Sequence of Hck (P08631 whole entry, looked up): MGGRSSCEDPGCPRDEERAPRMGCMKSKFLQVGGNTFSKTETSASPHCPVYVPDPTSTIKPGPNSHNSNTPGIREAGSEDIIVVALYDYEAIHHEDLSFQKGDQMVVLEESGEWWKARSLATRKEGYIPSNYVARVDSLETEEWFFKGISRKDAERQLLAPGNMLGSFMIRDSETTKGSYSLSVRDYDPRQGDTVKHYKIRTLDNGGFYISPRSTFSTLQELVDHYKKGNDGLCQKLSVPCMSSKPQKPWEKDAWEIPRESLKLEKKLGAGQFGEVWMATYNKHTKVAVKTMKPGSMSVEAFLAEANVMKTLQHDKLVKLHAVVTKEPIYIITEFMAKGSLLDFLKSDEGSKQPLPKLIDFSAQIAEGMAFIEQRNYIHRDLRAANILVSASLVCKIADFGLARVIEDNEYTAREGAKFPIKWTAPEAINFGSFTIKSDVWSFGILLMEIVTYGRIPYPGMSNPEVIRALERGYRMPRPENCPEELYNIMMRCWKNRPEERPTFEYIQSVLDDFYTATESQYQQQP

Point of comparison: TETGRYEILTE, phosphorylation enrichment 0.517. Against it:
- LIYTNYEAGKD [GSTP1_Y112] — higher, 5.36
- IGEGTYGVVFK [CDK2_Y15_YF] — higher, 4.9
- IGSQRYKLGVR [RB1_Y446] — lower, 0.31
- RRIHSYRSHLW [VHL_Y112_G114S] — higher, 0.601
- EEQKRYYNAMK [SCN5A_Y1494_K1493R] — lower, 0.46
- HELFVYKCDEN [DOCK3_Y548_YF] — higher, 1.19
- NTFEKYWLFFQ [GATM_Y103_P105L_YF] — higher, 0.68
- KTGDYYDLYGG [PTPN11_Y63_N58K] — higher, 5.07
- IVAREYYSEAD [CAMK2A_Y106] — higher, 0.557
- FRPPYYHRDCM [HGD_Y334_N337D] — lower, 0.415
- RVEDAYILTCN [CCT6A_Y229] — higher, 0.692
- DLRTGYSVPYG [TGM1_Y370_Y365D] — lower, 0.459
- LNPLIYSLRNK [OR5R1_Y290] — higher, 8.23
- SSNTEYLSASD [INSR_Y999_P997T] — lower, 0.501
- EYFDGYWEYSV [ITGA2B_Y265_G267E] — higher, 4.33
- PDSVDYRKKGF [CTSK_Y121_YF] — higher, 0.55
- EPAVLYNLKER [MYH7_Y103_D107E] — higher, 0.72
- LASLIYNFILF [AQP6_Y231_V234I] — higher, 11.5
- GQSKGYRPKLF [SIPA1L3_Y1376_YF] — lower, 0.395
- CEHRGFLYLAI [TEK_Y897_Y897F] — lower, 0.453
- SLTRLCVGENA [NLRP3_Y861_Y861C] — higher, 0.534
- QPGTDYKIYRY [FN1_Y1970_L1974R] — lower, 0.468
- VMSMNYRVGAL [BCHE_Y174_V170M] — lower, 0.447
- SHMVDYQPYRK [TEX37_Y25] — higher, 0.701
- AQAERYDDMAA [YWHAG_Y20_E15A] — lower, 0.476
- SHLEDYPFNAE [AKR1B10_Y310] — lower, 0.504
- NIKKEYAKMVQ [PMS2_Y181] — lower, 0.451
- QDLFLYQTHSE [PKHD1_Y255] — higher, 0.744
- CTIIHYNYMCN [TP53_Y234_T231I] — higher, 0.521
- KNILCYIQGGS [HYDIN_Y4610] — higher, 0.594
- ALVDTYCRHNY [HLA-DRB1_Y107_A103L] — higher, 0.549
- SPPILYSFYLD [FCRL6_Y239] — higher, 1.57

Target: FGFR3 (UniProt P22607)
Experiment: as above

Sequence of FGFR3 (P22607 whole entry, looked up): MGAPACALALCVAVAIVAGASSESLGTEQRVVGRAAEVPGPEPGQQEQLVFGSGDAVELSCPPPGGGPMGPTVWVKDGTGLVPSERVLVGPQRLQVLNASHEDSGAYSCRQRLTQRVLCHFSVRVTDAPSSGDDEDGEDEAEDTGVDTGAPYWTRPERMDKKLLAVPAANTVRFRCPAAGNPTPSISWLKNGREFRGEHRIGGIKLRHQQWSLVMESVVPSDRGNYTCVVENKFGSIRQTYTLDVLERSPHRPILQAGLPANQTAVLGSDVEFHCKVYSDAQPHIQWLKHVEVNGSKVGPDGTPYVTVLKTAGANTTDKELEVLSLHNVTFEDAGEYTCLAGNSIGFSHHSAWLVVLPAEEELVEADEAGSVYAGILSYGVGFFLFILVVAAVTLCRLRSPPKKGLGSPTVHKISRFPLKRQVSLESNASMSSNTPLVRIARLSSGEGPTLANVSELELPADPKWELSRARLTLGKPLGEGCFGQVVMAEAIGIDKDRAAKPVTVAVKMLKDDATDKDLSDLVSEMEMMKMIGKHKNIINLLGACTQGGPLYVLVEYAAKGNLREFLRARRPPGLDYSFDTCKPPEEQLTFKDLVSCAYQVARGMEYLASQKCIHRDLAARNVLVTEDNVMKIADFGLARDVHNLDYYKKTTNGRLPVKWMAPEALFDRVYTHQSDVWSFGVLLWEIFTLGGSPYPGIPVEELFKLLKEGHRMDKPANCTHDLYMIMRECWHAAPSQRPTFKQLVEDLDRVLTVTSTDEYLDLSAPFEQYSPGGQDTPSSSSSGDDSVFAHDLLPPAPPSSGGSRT

Point of comparison: SHMVDYQPYRK [TEX37_Y25], phosphorylation enrichment 0.505. Against it:
- LIYTNYEAGKD [GSTP1_Y112] — higher, 1.64
- IGEGTYGVVFK [CDK2_Y15_YF] — higher, 0.557
- IGSQRYKLGVR [RB1_Y446] — lower, 0.364
- RRIHSYRSHLW [VHL_Y112_G114S] — higher, 0.778
- EEQKRYYNAMK [SCN5A_Y1494_K1493R] — lower, 0.48
- HELFVYKCDEN [DOCK3_Y548_YF] — higher, 1.53
- NTFEKYWLFFQ [GATM_Y103_P105L_YF] — higher, 1
- KTGDYYDLYGG [PTPN11_Y63_N58K] — higher, 13.8
- IVAREYYSEAD [CAMK2A_Y106] — higher, 0.81
- FRPPYYHRDCM [HGD_Y334_N337D] — higher, 0.735
- TETGRYEILTE — lower, 0.427
- RVEDAYILTCN [CCT6A_Y229] — higher, 0.689
- DLRTGYSVPYG [TGM1_Y370_Y365D] — higher, 0.592
- LNPLIYSLRNK [OR5R1_Y290] — higher, 1.44
- SSNTEYLSASD [INSR_Y999_P997T] — higher, 0.615
- EYFDGYWEYSV [ITGA2B_Y265_G267E] — higher, 12
- PDSVDYRKKGF [CTSK_Y121_YF] — higher, 0.88
- EPAVLYNLKER [MYH7_Y103_D107E] — higher, 0.524
- LASLIYNFILF [AQP6_Y231_V234I] — higher, 4.49
- GQSKGYRPKLF [SIPA1L3_Y1376_YF] — lower, 0.419
- CEHRGFLYLAI [TEK_Y897_Y897F] — higher, 0.698
- SLTRLCVGENA [NLRP3_Y861_Y861C] — higher, 0.685
- QPGTDYKIYRY [FN1_Y1970_L1974R] — higher, 0.882
- VMSMNYRVGAL [BCHE_Y174_V170M] — higher, 0.573
- AQAERYDDMAA [YWHAG_Y20_E15A] — higher, 0.67
- SHLEDYPFNAE [AKR1B10_Y310] — higher, 0.771
- NIKKEYAKMVQ [PMS2_Y181] — lower, 0.39
- QDLFLYQTHSE [PKHD1_Y255] — higher, 0.822
- CTIIHYNYMCN [TP53_Y234_T231I] — higher, 0.798
- KNILCYIQGGS [HYDIN_Y4610] — higher, 0.761
- ALVDTYCRHNY [HLA-DRB1_Y107_A103L] — lower, 0.501
- SPPILYSFYLD [FCRL6_Y239] — higher, 0.924

Tested on: c-Abl (mouse)
Experiment: as above

Point of comparison: LASLIYNFILF [AQP6_Y231_V234I], phosphorylation enrichment 5.49. Against it:
- LIYTNYEAGKD [GSTP1_Y112] — higher, 7.84
- IGEGTYGVVFK [CDK2_Y15_YF] — lower, 0.631
- IGSQRYKLGVR [RB1_Y446] — lower, 0.41
- RRIHSYRSHLW [VHL_Y112_G114S] — lower, 0.395
- EEQKRYYNAMK [SCN5A_Y1494_K1493R] — lower, 0.352
- HELFVYKCDEN [DOCK3_Y548_YF] — lower, 1.5
- NTFEKYWLFFQ [GATM_Y103_P105L_YF] — lower, 1
- KTGDYYDLYGG [PTPN11_Y63_N58K] — lower, 0.813
- IVAREYYSEAD [CAMK2A_Y106] — lower, 0.664
- FRPPYYHRDCM [HGD_Y334_N337D] — lower, 0.572
- TETGRYEILTE — lower, 0.389
- RVEDAYILTCN [CCT6A_Y229] — lower, 0.565
- DLRTGYSVPYG [TGM1_Y370_Y365D] — lower, 0.568
- LNPLIYSLRNK [OR5R1_Y290] — lower, 2.28
- SSNTEYLSASD [INSR_Y999_P997T] — lower, 0.556
- EYFDGYWEYSV [ITGA2B_Y265_G267E] — lower, 1.54
- PDSVDYRKKGF [CTSK_Y121_YF] — lower, 0.391
- EPAVLYNLKER [MYH7_Y103_D107E] — lower, 0.687
- GQSKGYRPKLF [SIPA1L3_Y1376_YF] — lower, 0.448
- CEHRGFLYLAI [TEK_Y897_Y897F] — lower, 0.947
- SLTRLCVGENA [NLRP3_Y861_Y861C] — lower, 2.77
- QPGTDYKIYRY [FN1_Y1970_L1974R] — lower, 0.742
- VMSMNYRVGAL [BCHE_Y174_V170M] — lower, 0.686
- SHMVDYQPYRK [TEX37_Y25] — lower, 0.91
- AQAERYDDMAA [YWHAG_Y20_E15A] — lower, 0.668
- SHLEDYPFNAE [AKR1B10_Y310] — lower, 0.713
- NIKKEYAKMVQ [PMS2_Y181] — lower, 0.422
- QDLFLYQTHSE [PKHD1_Y255] — lower, 1.56
- CTIIHYNYMCN [TP53_Y234_T231I] — lower, 0.534
- KNILCYIQGGS [HYDIN_Y4610] — lower, 0.977
- ALVDTYCRHNY [HLA-DRB1_Y107_A103L] — lower, 0.515
- SPPILYSFYLD [FCRL6_Y239] — lower, 0.736
